B1: Leader protein of Theiler's virus: Leader protein of Theiler's virus, SEQ ID NO: 1, enhancer protein (protein)
chain: MACKHGYPLMCPLCTALDKTSDGLFTLLFDNEWYPTDLLTVDLEDEVFYPDDPHMEWTDLPLIQDIEMEPQ
modifications: Cardiovirus Theiler's-like cardiovirus
B2: C1-Inhibitor: secreted protease inhibitor of the serpin superfamily, expressed as C1-Inh-myc-flag fusion (protein, UniProt P05155 23-500, looked up)
Plasma protease C1 inhibitor: NPNATSSSSQDPESLQDRGEGKVATTVISKMLFVEPILEVSSLPTTNSTTNSATKITANTTDEPTTQPTTEPTTQPTIQPTQPTTQLPTDSPTQPTTGSFCPGPVTLCSDLESHSTEAVLGDALVDFSLKLYHAFSAMKKVETNMAFSPFSIASLLTQVLLGAGENTKTNLESILSYPKDFTCVHQALKGFTTKGVTSVSQIFHSPDLAIRDTFVNASRTLYSSSPRVLSNNSDANLELINTWVAKNTNNKISRLLDSLPSDTRLVLLNAIYLSAKWKTTFDPKKTRMEPFHFKNSVIKVPMMNSKKYPVAHFIDQTLKAKVGQLQLSHNLSLVILVPQNLKHRLEDMEQALSPSVFKAIMEKLEMSKFQPTLLTLPRIKVTTSQDMLSIMEKLEFFDFSYDLNLCGLTEDPDLQVSAMQHQTVLELTETGVEAAAASAISVARTLLVFEVQQPFLFVLWDQQHKFPVFMGRVYDPRA
modifications: myc-flag tag

Legend:
HEK293 cells [1] = format: cell-based, human
DRD1 = target: T1, DRD1 (Homo sapiens, UniProt P21728); test: DRD1-Strep functional activity, cAMP-Glo assay; format: cell-based; details: HEK293 expressing DRD1-Strep
T1 construct: expressed in transfected cells; host or cells: HEK293
T1 sequence (P21728 with tags, fused parts or gaps): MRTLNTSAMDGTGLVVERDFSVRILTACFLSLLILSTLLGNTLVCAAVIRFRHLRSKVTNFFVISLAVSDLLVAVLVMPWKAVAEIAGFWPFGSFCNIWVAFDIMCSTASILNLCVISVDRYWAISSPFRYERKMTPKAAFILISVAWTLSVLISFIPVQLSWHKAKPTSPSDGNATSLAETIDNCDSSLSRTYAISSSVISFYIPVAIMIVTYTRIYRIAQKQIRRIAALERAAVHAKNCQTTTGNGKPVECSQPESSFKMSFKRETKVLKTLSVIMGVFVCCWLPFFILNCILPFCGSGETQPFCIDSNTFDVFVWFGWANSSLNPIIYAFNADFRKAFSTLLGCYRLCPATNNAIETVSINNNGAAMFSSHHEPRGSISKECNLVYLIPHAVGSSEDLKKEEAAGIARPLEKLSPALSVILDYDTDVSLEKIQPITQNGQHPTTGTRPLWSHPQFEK
Method: In addition to the illustration of a correctly translocated GPCR such as DRD1, activity tests were performed using a DRD1-Strep fusion. The smaller strep-tag ensures that the interaction with the cytosolic located G-protein is intact, and a functional assay can be performed. Upon binding of dopamine, DRD1 releases the heterotrimeric G-protein to its Gα subunit and its Gβγ complex. In the resting state, Ga binds GDP but upon activation exchanges GTP for GDP. The Gα-GTP complex interacts with adenylate cyclase (AC), resulting in activation of AC activity and consequently, increasing cAMP levels. Changes in intracellular cAMP levels can be measured by standard cAMP assays. The academic and industry standard (EG5) was compared to the same target protein in co-expression with the L-protein of ECMV.
DRD1-Strep fusions were expressed in HEK293 cells. […] Protein was expressed for 48 h and DRD1 activity was analyzed using the cAMP-Glo™ assay (Promega) according to manufacturer's instructions. After 48 h, cells were washed with sterile PBS pH 7.2 and cells were incubated for 2 h with 20 μl of a 1 mM dopamine substrate solution (+dopamine; ON) or PBS pH 7.2 (−dopamine; OFF) at 37° C. […] Luminescence was measured using a plate reader (BioTek Synergy™ LX) and data were analyzed using standard analysis programs.

Sf9 cells = test: DRD1-GFP expression, localization and toxicity in Sf9 cells; details: Sf9, 72 h
Method: DRD1-GFP fusions were expressed in Sf9 cells. Sf9 cells were seeded at 0.4×10^6 cells/well in a 6 well plate and incubated for 15 min at RT before transiently transfecting with either EG10 or EG8 using Cellfectin Reagent II (Thermofisher) according to manufactures instruction. DRD1-GFP expression was monitored after 72 h using fluorescence microscopy. Images were taken and analyzed by an Echo Revolve microscopy system.

CHO-K1 cells = test: DRD1-GFP expression and membrane localization in CHO-K1 cells; details: CHO-K1, 48 h
Method: DRD1-GFP fusions proteins were expressed in CHO-K1 cells. CHO-K1 cells were seeded at 0.05×10^6 cells/well in a 24 well plate and incubated at 37° C. and 5% CO2 overnight before transiently transfecting with either EG10 or EG19 using Lipofectamine 3000 (Thermofisher) according to manufactures instructions. DRD1-GFP expression was monitored after 48 h using fluorescence microscopy. Images were taken and analyzed by an Echo Revolve microscopy system.

HEK293 cells [2] = test: C1-Inhibitor secretion and purification, total amount produced; format: cell-based, human; details: presence vs absence of the enhancer protein (L protein from EMCV, EG11), HEK293, 72 h
Method: (§1) C1-Inh-Myc-Flag fusions were expressed in HEK293 cells. HEK293 cells were seeded at 1.75×10^6/ml cells in 100 ml shaking flask and incubated at 37° C., 5% CO2 and 120 rpm overnight before transiently transfecting with a vector encoding C1-Inh (OriGene; CAT #: RC203767) either alone, or in combination with EG11 by transfection of suspension cells using methods known in the art and/or disclosed herein. Supernatant containing the expressed recombinant C1-Inh protein was harvested after 72 h and supernatant was cleared by centrifugation followed by filtration ([…], nitrocellulose). To purify C1-Inh, Anti-Flag resin (ANTI-FLAG M2 Affinity Gel, Millipore Sigma) was equilibrated with 20 mM Tris pH 7.5, 50 mM NaCl prior to adding to the supernatant. Supernatant was incubated with the resin for 2 h at 4° C. with shaking. Resin was settled and washed with 5 CV 20 mM Tris pH 7.5, 50 mM NaCl and protein was eluted with 4 CV 20 mM Tris pH 7.5, 50 mM NaCl, 0.2 mg/ml 3× Flag Peptide. Purification was analyzed by SDS-PAGE (SurePAGE, Bis-Tris, GenScript) and protein containing fractions were pooled. Protein concentration was analyzed by BCA Assay (ThermoFisher) according to manufactures instructions and normalized C1-Inh was tested for activity using Immunoassay (MicroVue C1-Inhibitor Plus EIA, Quidel) following manufactures instructions.

[3] = Active C1-Inhibitor, MicroVue C1-Inhibitor Plus EIA; format: biochemical; details: presence vs absence of the enhancer protein, protein concentration normalized
Method: as §1

Row | Molecule | DRD1-GFP membrane association, enhancer on a separate vector (HEK293 cells [1]) | DRD1-GFP translocation into the outer membrane / inclusion bodies (HEK293 cells [1]) | activating signal, difference between OFF (-dopamine) and ON (+dopamine) luminescence (DRD1; 1 mM dopamine 2 h) | leaky activation, OFF signal compared to non-transfected cells (DRD1; absence of dopamine) | DRD1-GFP translocation and localization (Sf9 cells) | DRD1-GFP translocation and localization (CHO-K1 cells) | increase of total amount of produced C1-Inhibitor (HEK293 cells [2]) | increase of amount of active C1-Inhibitor [3]
1 | Leader protein of ECMV: Leader protein of Encephalomyocarditis virus (EMCV), SEQ ID NO: 2, enhancer protein | ensures correct membrane association | sufficient to ensure a correct membrane incorporation of DRD1-GFP | strong activating signal | greatly reduced | improved expression and localization of the membrane protein |  |  | 
2 | B1 |  | sufficient to ensure a correct membrane incorporation of DRD1-GFP |  |  |  | improved expression and localization of the membrane protein |  | 
3 | B2 |  |  |  |  |  |  | > 30% | > 10%
